Square brackets hold non-standard residues; d marks the D form. Ends that are not written are not given here. 2Nal = N[C@@H](Cc1ccc2ccccc2c1)C(=O)O
Target: T1, GST-NEMO(1-196) (UniProt Q9Y6K9 1-196)
T1 construct: range 1-196; Expressed in E. coli from pGEX4T3-GST-NEMO(1-196) and purified on glutathione-Sepharose; Used with the GST tag in the HTRF assay (30 nM); also called Recombinant GST-NEMO; NF-κB essential modifier; not shown: glutathione S-transferase (GST) tag encoded by the pGEX4T3 vector
T1 sequence (Q9Y6K9 1-196): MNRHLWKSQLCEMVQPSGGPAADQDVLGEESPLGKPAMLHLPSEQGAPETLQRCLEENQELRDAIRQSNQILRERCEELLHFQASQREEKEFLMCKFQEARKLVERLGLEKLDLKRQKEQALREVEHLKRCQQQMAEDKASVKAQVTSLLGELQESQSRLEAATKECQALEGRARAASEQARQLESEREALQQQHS
Test: HTRF competition, NEMO-IKK interaction (FIG. 6)
Method: The plate was incubated for 2 h at room temperature. […] The data was analyzed using GraphPad Prism 6.0 and IC₅₀ values were obtained by fitting the data to the dose-response inhibition curves.

Binder | IC50 [nM]
RRRR[2Nal]FCALDWSWLQC (cysteine pairing not given here) [RRRRΦFCALDWSWLQC] | 1400
RRRR[2Nal]FTALDWSWLQT [RRRRΦFTALDWSWLQT] | 1600

From US20190282654A1 (OHIO STATE INNOVATION FOUNDATION, published 2019)
